Source: patent US11584938B2, “Plant EPSPS mutant containing L195P and S247G mutations and encoding gene and use thereof” (GEVOTO LLC, priority 2017, dated 2023)
“Also recorded” adds a separate entry of the source.

Tested on: double knockout E. coli (EPSPS defective E. coli, EDCE)
Experiment: growth of EPSPS defective E. coli transformed by the EPSPS gene in M9 culture media containing different glyphosate concentrations
Assay type: cell-based, E. coli DH5α
Conditions: for EPSPS enzyme activity: concluded from growth of defective E. coli at 0 mM glyphosate
Text: A method for detecting the glyphosate resistance of the soybean EPSPS mutant G1 provided in Example 1 and the soybean EPSPS mutant G3 provided in Example 2 is as follows:
according to the sequence of the nucleic acid molecule provided in the example, synthesizing the encoding gene that encodes the soybean EPSPS mutant G1 or G3 using a chemical synthesis method, introducing enzyme sites (Pac1 and Sbf1) at two ends thereof, connecting to an expression vector (for example, a pADV5 vector, the structure of which is as shown in FIG. 15) that has undergone the same restriction enzyme digestion treatment under the action of ligase after restriction enzyme digestion, then transforming double knockout E. coli, picking positive colonies after verification, inoculating the positive colonies to M9 culture media containing different glyphosate concentrations for growth, and observing the growth situation of the E. coli.
The wild-type soybean EPSPS (with an amino acid sequence represented by SEQ ID NO: 2 and an encoding gene sequence represented by SEQ ID NO: 1) and the soybean EPSPS mutant G2 (with an amino acid sequence represented by SEQ ID NO: 6, and a corresponding encoding gene sequence represented by SEQ ID NO: 5) merely containing the mutation P114(101)S were taken as controls.
In the above, the M9 basal culture medium can be prepared by the following method:
5×M9 salt solution: 6.78 g of Na2HPO4, 3.0 g of KH2PO4, 0.5 g of NaCl, and 1.0 g of NH4Cl were weighed, added with ddH2O to 200 ml, and subjected to high-temperature and high-pressure sterilization treatment;
20% glucose: 20 g of glucose was weighed, added with 80 ml of ddH2O for dissolving, diluted to 100 ml, and subjected to filtration and sterilization treatment;
1.0 M MgSO4: 24.6 g of MgSO4-7H2O was weighed, dissolved with 80 ml of ddH2O, diluted to 100 ml, and subjected to sterilization treatment;
1.0 M CaCl2: 11.1 g of CaCl2 was weighed, dissolved with 80 ml of ddH2O, diluted to 100 ml, and subjected to sterilization treatment; and
1000 ml of the M9 basal culture media were prepared by adding ddH2O to 200 ml of 5×M9 salt solution, 20 ml of 20% glucose, 2 ml of 1.0 M MgSO4 and 0.1 ml of 1.0 M CaCl2 to make up to 1000 ml.
In the above, the E. coli used was double knockout E. coli, namely, EPSPS defective E. coli (E. coli DH5α with EPSPS gene and C-P Lyase gene being knocked out, named as EDCE, wherein for a preparation method thereof, reference can be made to a Chinese invention patent with the filing number CN2016103256926).
The glyphosate resistance of the soybean EPSPS mutant G4 provided in Example 3 and the soybean EPSPS mutant G5 provided in Example 4 was verified with reference to the detection method in Experiment Example 1.
The wild-type wheat EPSPS (with an amino acid sequence represented by SEQ ID NO: 14, and a corresponding encoding gene sequence represented by SEQ ID NO: 13) and the wheat EPSPS mutant T2 (with an amino acid sequence represented by SEQ ID NO: 18, and a corresponding encoding gene sequence represented by SEQ ID NO: 17) merely containing the mutation P118(101)S were taken as controls to verify the glyphosate resistance of the wheat EPSPS mutants T1 and T3 provided in Example 5 and Example 6, and reference can be made to Experiment Example 1 for the method.
A method for verifying the glyphosate resistance of the wheat EPSPS mutants T4, T5, and T6 provided in Examples 7-9 is the same as that in Experiment Example 3.
The wild-type rice EPSPS R0 (with an amino acid sequence represented by SEQ ID NO: 28, and a corresponding encoding gene sequence represented by SEQ ID NO: 27) and the rice EPSPS mutant R2 (with an amino acid sequence represented by SEQ ID NO: 32, and a corresponding encoding gene sequence represented by SEQ ID NO: 31) merely containing the mutation P116(101)S were taken as controls to verify the glyphosate resistance of the rice EPSPS mutants R1 and R3 provided in Examples 10 and 11, and reference can be made to Experiment Example 1 for the method. […]

[1] = culture media containing 0 mM glyphosate
[2] = culture media containing 5 mM glyphosate
[3] = culture media containing 20 mM glyphosate
[4] = culture media containing 10 mM glyphosate

Row | Molecule | EPSPS enzyme activity | growth of the E. coli transformed by the EPSPS [1] | growth of the E. coli transformed by the EPSPS (culture media containing 1 mM glyphosate) | growth of the E. coli transformed by the EPSPS [2] | growth of the transformed E. coli compared with E. coli transformed by the control EPSPS named in the value [2] | growth of the E. coli transformed by the EPSPS [3] | growth of the transformed E. coli compared with E. coli transformed by the control EPSPS named in the value [3] | growth of the E. coli transformed by the EPSPS [4] | growth of the transformed E. coli compared with E. coli transformed by the control EPSPS named in the value [4]
1 | T6: wheat EPSPS mutant, SEQ ID NO: 26, mutations L216(195)P, S269(247)G and P118(101)S (protein) MATSVAAPAAPAGAEEVVLQPIREISGAVQLPGSKSLSNRILLLSALSEGTTVVDNLLNSEDVHYMLEALEALGLSVEADKVAKRAVVVGCGGRFPVEKDAKEEVKLFLGNAGTAMRSLTAAVVAAGGNATYVLDGVPRMRERPIGDLVVGLQQLGADVDCFLGTNCPPVRINGKGGLPGGKVKLSGSISSQYLSSLLMAAPLALEDVEIEIIDKPISVPYVEMTLKLMEHFGVTAEHSDSWDRFYIKGGQKYKSPGNAYVEGDASSAGYFLAGAAITGGTVTVEGCGTTSLQGDVKFAEVLEMMGAKVTWTDTSVTVTGPPRQPFGRKHLKAVDVNMNKMPDVAMTLAVVALFADGPTAIRDVASWRVKETERMVAIRTELTKLGATVEEGPDYCIITPPEKLNITAIDTYDDHRMAMAFSLAACAEVPVTIRDPGCTRKTFPNYFDVLSTFVKN | normal EPSPS enzyme activity | could grow | could grow normally | could grow | obviously superior to that of the E. coli transformed by T2 | could grow | obviously superior to that of the E. coli transformed by T2 | – | –
2 | R0: wild-type rice EPSPS, amino acid sequence SEQ ID NO: 28; control (protein, listed as Oryza sativa) MASNAAAAAAKAEEIVLQPIREISGAVQLPGSKSLSNRILLLSALSEGTTVVDNLLNSEDVHYMLEALKALGLSVEADKVAKRAVVVGCGGKFPVEKDAKEEVQLFLGNAGTAMRPLTAAVTAAGGNATYVLDGVPRMRERPIGDLVVGLKQLGADVDCFLGTECPPVRVKGIGGLPGGKVKLSGSISSQYLSALLMAAPLALGDVEIEIIDKLISIPYVEMTLRLMERFGVKAEHSDSWDRFYIKGGQKYKSPGNAYVEGDASSASYFLAGAAITGGTVTVQGCGTTSLQGDVKFAEVLEMMGAKVTWTDTSVTVTGPPREPYGKKHLKAVDVNMNKMPDVAMTLAVVALFADGPTAIRDVASWRVKETERMVAIRTELTKLGASVEEGPDYCIITPPEKLNITAIDTYDDHRMAMAFSLAACADVPVTIRDPGCTRKTFPNYFDVLSTFVRN | – | could grow | – | could not grow | – | – | – | could not grow | –
3 | R2: rice EPSPS mutant, SEQ ID NO: 32, merely containing the mutation P116(101)S; control (protein) MASNAAAAAAKAEEIVLQPIREISGAVQLPGSKSLSNRILLLSALSEGTTVVDNLLNSEDVHYMLEALKALGLSVEADKVAKRAVVVGCGGKFPVEKDAKEEVQLFLGNAGTAMRSLTAAVTAAGGNATYVLDGVPRMRERPIGDLVVGLKQLGADVDCFLGTECPPVRVKGIGGLPGGKVKLSGSISSQYLSALLMAAPLALGDVEIEIIDKLISIPYVEMTLRLMERFGVKAEHSDSWDRFYIKGGQKYKSPGNAYVEGDASSASYFLAGAAITGGTVTVQGCGTTSLQGDVKFAEVLEMMGAKVTWTDTSVTVTGPPREPYGKKHLKAVDVNMNKMPDVAMTLAVVALFADGPTAIRDVASWRVKETERMVAIRTELTKLGASVEEGPDYCIITPPEKLNITAIDTYDDHRMAMAFSLAACADVPVTIRDPGCTRKTFPNYFDVLSTFVRN | normal EPSPS enzyme activity | could grow | – | – | – | could grow | – | could grow | –
4 | R1: rice EPSPS mutant, SEQ ID NO: 30, mutation L214(195)P (protein) MASNAAAAAAKAEEIVLQPIREISGAVQLPGSKSLSNRILLLSALSEGTTVVDNLLNSEDVHYMLEALKALGLSVEADKVAKRAVVVGCGGKFPVEKDAKEEVQLFLGNAGTAMRPLTAAVTAAGGNATYVLDGVPRMRERPIGDLVVGLKQLGADVDCFLGTECPPVRVKGIGGLPGGKVKLSGSISSQYLSALLMAAPLALGDVEIEIIDKPISIPYVEMTLRLMERFGVKAEHSDSWDRFYIKGGQKYKSPGNAYVEGDASSASYFLAGAAITGGTVTVQGCGTTSLQGDVKFAEVLEMMGAKVTWTDTSVTVTGPPREPYGKKHLKAVDVNMNKMPDVAMTLAVVALFADGPTAIRDVASWRVKETERMVAIRTELTKLGASVEEGPDYCIITPPEKLNITAIDTYDDHRMAMAFSLAACADVPVTIRDPGCTRKTFPNYFDVLSTFVRN | normal EPSPS enzyme activity | could grow | – | could grow normally | – | grew obviously | – | grew obviously; also recorded: could grow normally | –
5 | R3: rice EPSPS mutant, SEQ ID NO: 34, mutations L214(195)P and P116(101)S (protein) MASNAAAAAAKAEEIVLQPIREISGAVQLPGSKSLSNRILLLSALSEGTTVVDNLLNSEDVHYMLEALKALGLSVEADKVAKRAVVVGCGGKFPVEKDAKEEVQLFLGNAGTAMRSLTAAVTAAGGNATYVLDGVPRMRERPIGDLVVGLKQLGADVDCFLGTECPPVRVKGIGGLPGGKVKLSGSISSQYLSALLMAAPLALGDVEIEIIDKPISIPYVEMTLRLMERFGVKAEHSDSWDRFYIKGGQKYKSPGNAYVEGDASSASYFLAGAAITGGTVTVQGCGTTSLQGDVKFAEVLEMMGAKVTWTDTSVTVTGPPREPYGKKHLKAVDVNMNKMPDVAMTLAVVALFADGPTAIRDVASWRVKETERMVAIRTELTKLGASVEEGPDYCIITPPEKLNITAIDTYDDHRMAMAFSLAACADVPVTIRDPGCTRKTFPNYFDVLSTFVRN | normal EPSPS enzyme activity | could grow | – | – | – | – | – | could grow | superior to that of the E. coli transformed by R2
6 | R4: rice EPSPS mutant, SEQ ID NO: 36, mutation S267(247)G (protein) MASNAAAAAAKAEEIVLQPIREISGAVQLPGSKSLSNRILLLSALSEGTTVVDNLLNSEDVHYMLEALKALGLSVEADKVAKRAVVVGCGGKFPVEKDAKEEVQLFLGNAGTAMRPLTAAVTAAGGNATYVLDGVPRMRERPIGDLVVGLKQLGADVDCFLGTECPPVRVKGIGGLPGGKVKLSGSISSQYLSALLMAAPLALGDVEIEIIDKLISIPYVEMTLRLMERFGVKAEHSDSWDRFYIKGGQKYKSPGNAYVEGDASSAGYFLAGAAITGGTVTVQGCGTTSLQGDVKFAEVLEMMGAKVTWTDTSVTVTGPPREPYGKKHLKAVDVNMNKMPDVAMTLAVVALFADGPTAIRDVASWRVKETERMVAIRTELTKLGASVEEGPDYCIITPPEKLNITAIDTYDDHRMAMAFSLAACADVPVTIRDPGCTRKTFPNYFDVLSTFVRN | normal EPSPS enzyme activity | could grow | – | – | – | grew obviously | – | could grow normally | superior to that of the E. coli transformed by R1
